The source of these data is US20160136262A1.

Experiment [1] concerns the target T1, H1-mini2-cluster1+5+6-GCN4 without leader sequence and with FLAG-thrombin-foldon-HIS. Description: ELISA/HTRF, HEK293F; average. The conditions noted are these: remark: other sources report otherwise. (In general: In an ELISA, binding on a coated surface is turned into a signal by an enzyme label.)
Experiment [2] has as its target T1, H1-mini2-cluster1+5+6-GCN4 without …. Description: ELISA/HTRF, P. pastoris; average. The conditions noted are these: remark: other sources report otherwise.

B1: CR6261 (antibody, V domains shown)
VH: EVQLVESGAEVKKPGSSVKVSCKASGGPFRSYAISWVRQAPGQGPEWMGGIIPIFGTTKYAPKFQGRVTITADDFAGTVYMELSSLRSEDTAMYYCAKHMGYQVRETMDVWGKGTTVTVSS
VL: QSVLTQPPSVSAAPGQKVTISCSGSSSNIGNDYVSWYQQLPGTAPKLLIYDNNKRPSGIPDRFSGSKSGTSATLGITGLQTGDEANYYCATWDRRPTAYVVFGGGTKLTVLG
In the case of B1, the fold increase of ratio over parental SEQ ID NO: 6 in experiment [1] and in experiment [2] was 1 fold in each case. The ratio binding signal/HTRF signal in experiment [1] is 17.4; in experiment [2] it was 5.94.
